Measurements published in the DeepSol protein solubility set.

assay: soluble on expression in E. coli; label from the status in PepcDB or PDB records

Sequence	soluble on expression in E. coli
MGEPVILEAVRTPIGKRNGALRAYRPDALYAKVLDALLERTGIDPGLIGDVVTGCVTQVGEQGANVGRLGVLLSRLPKEVPAVSLNRMCGSSQQAVHFAAQAIAAGDVDFAIAGGVESMTRVPMFADIGGGFHTLNPELGKRYELVHQGESAERIAERYGFCREELDEWGYLSHKRAARATEEGRFSAQILPLEGLDAEGRPFLLTRDEGVRPDVDYEKMLALKPVFREDGVVTAGNSSQISDGAAALLLGDREKALALGLRPRARFLARVVVAGDPTLQLLEVIPAAKKALERAGLSLRDVDVIEVNEAFASVVLAFLRELGADPEKVNPNGGAIAHGHPLGATGAVLMTKLLYELERTGSEFGLQVMCIGHGQATATVIQRL	soluble
RNRFTRRKIVYIHEGMNVPLLGYNAFGLIDRGTNLIQVRGSTGCNLSCIFCSVDEGPYSRTRNLDFVVDVDYLMKWFDWVAKEKGKGLEAHLDAQGEPLLYPYIVELVQELRSHPHVSVISMQSNGVLLDEKLVEELAEAGLDRVNLSIHSLDPEKAKMLMGMKNYDLNHVLEMAEALVNAGIDVLIAPVIIFGINDNEAEAFIEFARRIGAGKRWPALGFQNYVPYKFGRNPVIAKPVPFKEFYEWLRMLEEKTGMRPLVLKPHHFGMHPRPFIPLAFKR	not soluble
GHLYLVPTPIGNLDDMTFRAVKTLTAVDLIAAEDTRNTQKLLNHFEITTKQISFHEHNTQERIPQLIAKLKQGMQIAQVSDAGMPSISDPGHELVNACIDAHIPVVPLPGA	not soluble
MGSDKIHHHHHHIETYNPAEVTFPENVAKVLIVNNAVPQPEDAGYEYTLQGERQDTCKAKADSALFDACRTLGEAIVEASYFNDVLLYHDAVRKDNQAFLDTKLTQGQVASLCDETGADAVISIDRLLFDMKKSVGTLGEGYVMGMIDVQMAGVIRSYVPDREAPLATVHMKDSIYWAESADYMPILDKVLPSPENALRGAGKYFGAKVYANFVPHWEKETRWYFTGMGSRWKEASAYAANEKWDMAEDRWSGLYRGTENWKSRAKAASNLALCHEMRGALKEAYEWAHKSYDLFKRNNGDNDKSTKLLELYVQALAERIRSDKKLNVQFGED	not soluble
MSFKDLRSFIDHLEANGELKRISYPVDPHLEMTEIADRVLRAQGPALLFENPTNHSMPVLANLFGTPKRVAMALGKDDPLALREVGELLAFLKEPEPPRGFKDAISKIPMFKQALNMPPKTVRNPACQQVVKTGDDVDLTQLPIQHCWPGDVAPLVTWGLTITKGPRKSRQNLGIYRQQLLGKNKLIMRWLSHRGGALDFADFKEQFPGERYPVVVALGSDPVTILGAVTPVPDAMSEYAFAGLLRGERTEVCKALSCDLEVPASSEIILEGYIDPNEMAEEGPYGDHTGYYNETDKFPVFTVTHITHRKDPIYHSTYTGRPPDEPAMLGVALNEVFVPILRKQYPEIIDFYLPPEGCSYRMAVISIRKQYPGHAKRVMMGAWSFLRQFMYTKFIVVVDDDVNCRDWNDVIWAITTRMDPKRDTVMIDNTPIDYLDFASPVVGLGSKMGLDATNKWEGETNREWGTPIVMDPKVKQKIDSIWDELGIS	soluble
GMSKIFNEELAVIEAAAIAYLTAFNRADIPAVIATYTDDGVLMGPGRPAAVGKDELAEVYLSVFETVGFDMAYEIKEVVQTSADWAFVRSATEGTETNKATGVVTPAAYQELFLLRKSATGSWQTARYCTSKISP	soluble
MSLFEQLDELAAQGKPAALLTIVRKDGSAPRDVGDKMIVTADEEYGTIGGGTVEHLAVQDARSVLSGADDPGIRTYELERGGNTGMVCGGEMDVFIDHVRGQAQLYIAGGGHISVELAPLAERLGYAVTVVDDREAYADPTQFPDETDVIHGEYGEALGDLPMGTETAVAVATRSGTFDQAAVAAALDGEAGYVGLVASETKANHVLDSLAESGYARRDLSRVQTPVGLDLGGSGPAAVALSVLAEVTMDRHDATGARATRLNLDDLVVVRGGGDLGSGVVYRLQQAGFPVIVTEVDQPTVVRRAVAFGAALYEDEVEVEGVTGRAAADIDEALELLADDVVPVLVDPEATVADDLDAAVLVDAIMAKGAFDTGTRREDADVVVGMGPGFEAGEDVDAVVETDRGHELGRVFYDGTASEYDGEPGERRGYTHERVLRAPTDGEWTPTVAIGDSVTAGDVVGTVGDRPVETEIDGLVRGLVHGGLSVSEGTKLGDVDPRGESVDPTKISDKALCLGGGVLEAVLRLRLEHHHHHH	not soluble
MPSQITRSSHSSLPEVAPASGDAAGVSEQTPQQARTVAFFASGELAVAFGRTSTAPAQDSVRLLSALQRELDKQQPSWPTVAQLCHSLAEVAKTEQGWHQLASEDQAPAPALKDLLERCIGRLADMPASHASHDSLSLACEGLRTARLHQSVARLTARPPALARAIPDLLALTHLDPETLGAEPPVVSSYTLFSHFVHTAKQRTAELNDSLQRQPEAVVSLLRSHADTLNDLETLPGALQALTENCQDAPACNELRELAEVVGALLQLLREHGILPRLEAISIEPGEAPAPGHEAAEPRLTRSQALLKAGGNLVRKFDAYGALAPMDDKGLLALMRTPAPHLSPDQMHAFLNKHVLHLTQEQRDIVSNTPLPFAPEGDIEARCGMGFDEKLRLALANGSLVLSEEQLARLGHLPSAATTTSDVVKTLLEKPSSALSEAERDMLGAIVQANGQGQLDAWRAHNEQLPAVLSRSGLPSDVKDELLSLNQSMNAELGTLKNGASFKSRILASPAMLLALAPLPLAVAFVSKDNSYSSSLVAHFTKNAVFMAGLMMNELTNARTNVDHGLNRYFVTVLANAIVAQPTFARNEHLLEQVGFGIATAVASGAATLGVFNRESIVAAFKLAKSKLSRQDTGNASIPEEDHLAVVRHFDVSEHFAQQMKVATELYKQDKSITDIMNSSLTYLGTKSSEFQARFESVDALRAGLQLAEGERKADPDFYTKLGLVALTASIGAALVMLMKSMVGKADYAADGVWCVSEMLKLAMNPEVDMQKAVQVFKEIVGLNLVMTGFLGVNKVWNFLDKGIKGYASGAAVLTAANLTLPGMVGEVAGAAAGKGLSYLTDKGKAAHQAGRAAASWAGNYVGTSRLGSAVGTLQTAIPGRIAGGQVVAGLYDRFRYLTGSHPTPAQQAAGEP	not soluble
MGSDKIHHHHHHMKFPERFAHLPPYAFPRLRALLDHHAPGGDVVQLTIGEPKHEFPAWVTDVIVENASAFNNYPQNEGSDALRGAMADWAAQRYGVTLDPATRVMALNGTREGLYNAAMALCPEEKNGQRPVVLIPNPFYQVYMIAAISVAAEPVFVPATDETGHLPDYASLPEEVLNRTAIAYICSPANPQGAVASREYWQQLFALAEKYDFKVFADECYSEIYRDTAPVGALTVADEMGLDPERVVLFNSLSKRSNLPGLRCGLLAGGPETLVQVKKLRAYSGAPIPGPLQAAAAKVWADEVHVAENRALYQEKYRIADEVFAGLNGYMSPEAGFFLWLPVEDGEAATLKLWQETGVRVLPGAFLAQGKGAENPGHGYIRVALVASEEQTRASLQLLRDCLY	not soluble
MSLDNQLINSIIEKYQFSKKQIEAVLTLLEEKNTVPFIARYRKEQTGGLDEVQIKQIDDEYQYMVNLQKRKEEVIKNIEQQGLLTEELKKDILKQNKLQRVEDLYRPFKQKKKTRATEAKRKGLEPLAIWMKARKHEVSIEEKAQQFINEEVQSVEDAIKGAQDIIAEQISDNPKYRTKILKDMYHQGVLTTSKKKNAEDEKGIFEMYYAYSEPIKRIANHRVLAVNRGEKEKVLSVKFEFDTTSVEDFIARQEINHNNVNRSYILEAIKDSLKRLIVPSIEREIHADLTEKAENHAIDVFSENLRNLLLQPPMKGKQILGVDPAFRTGCKLAVINPFGTFIAKGVIYPHPPVSKKEAAEKDFVQMVKAYDVQLIAIGNGTASRETEQFVADLIKKHQLPVQFIIVNEAGASVYSASEIARDEFPDFQVEERNAVSIGRHVQDPLSELVKIDPKSIGVGQYQHDFFQEGHHHHHH	soluble
MSSIVEHVVLFKLNDDDVDSGKINSMVNGINELVNLDQVLHLYCGSIHRLITTTASDFTHVLHSRYRSKEDLNAYAIHPDHVRVVKESESIREDIMAVDWIAEQAPEALAPPLGSIGKITLLKLKENVMEEAKLEIMEVMKEKFEGIDQITVGENFSPGRSKDFSIGSISYFRDLGEIEAVDDQMKLQNDKIRDYVDDTIVVEFNVPSSS	soluble
MMATQTLSIDSYQDGQQMQVVTELKTEQDPNCSDPDAEGVSPPPIESQTPMDADKQAIYRHPLFPLLALLFEKCEQSTQGSEGTTSASFDVDIENFVRKQEKDGKPFFCEDPETDNLMVKAIQVLRIHLLELEKVNELCKDFCSRYIACLKTKMNSETLLSGEPGSPYSPVQSQQIQSAITGTLSPQGIVVPASALQQGNVTMATVAGGTVYQPVTVVTPQGQVVTQALSPGTIRIQNSQLQLQLNQDLSILHQEDGSSKNKRGVLPKHATNVMRSWLFQHIGHPYPTEDEKKQIAAQTNLTLLQVNNWFINARRRILQPMLDSSCSETPKTKKKPAQNRPVQRFWPDSLASGVAQATPSELAMSEGAVVTITTPVNMNVDSLQSLSSDGATLAVQQVMMAGQSEDESVDSTEDEGGALAPTHISGLVLENSDSLQ	not soluble
MHVMIFGAGYSGKAIANALKTKAASVCGTTRSADKFANLAAAGMTPLLFDGVHLDDDLIAAMRNVTHLVQSIAPGKDGDPLFALLGGDLKKLLPNLKWLAYLSTVGVYGDHHGAWVNETTPCRPVSARSVERVAAEAAWTEAAQSADVPLSILRLSGIYGPGRNTFMNFEKGTARRLVKKDQVFNRIRVEDIGAAIAFLALKNERGIFNVTDDEPCPPQDVVSFAADLMGVVPPAEQDFGTADLTPMARSFYGENKRVSNAKIRELGFDFRFPEYRQSLKQLWESSLWRG	not soluble
MDRFDAMRAFARVVETGSFTKAADTLHMSKTSVTQLVQQLEARLRVRLLNRTTRKVNATADGAAYYERVRQLLADLEDAETSLSGASATPGGRLRVDVPSPFASTILVPALPAFQARYPDILLHLGVSDREVDLIDENVDCVIRGGQIGNLSLAARHVGDLQLGVYASPGYLARAGVPAHPRELQDAQHRIIGFSWSRARRLFPCAMRRRADERIEVAGRHALLLDEGNAYLAAGLAAMGVIGVPTYMAEAHVERGALIRLFGDWRLDPMPLYIAYPQNRHVSAKLRVFIDWIVELMARHAPVTDAPPPHRSARMPGGPAAIPTDITGA	not soluble
MKITAVETLYCNAGWRNLSFLKISTDEGLVGWAEFPENHINNVLSPLVRHMGQQILGEDPRRIHPVIDRLRRAAWGVPFGAVSRAIGAIENALVDIKAKAIGVPAYELIGGRMRDDIRMYWSHCGSYHVTNWKDLGVPRITSLDDVKSLGRQVRESGYHALKTNLMMFDRPEPYMYRPGFAGGSGDPDRNPLRSAISAAVDQMTAFREGAGPDIGLKLDVNFNFRPEGYIRLAHALEPVDLDWLEIDNFDAKAVAQVRRASRIPIASCETLSGRRQLRPYLEEQAVDVVIIDVPWNGIYEAMRMAALADSFEVNVATHNFCGPIATLISAHFCAAVPNFRVMEMDVVQVPWTNDLITNPPTIERGYMRLPDGPGWGADVNEEALRAHPPVAAKH	not soluble
MTKKVGVGQAHSKIILIGEHAVVYGYPAISLPLLEVEVTCKVVSAESPWRLYEEDTLSMAVYASLEYLDITEACVRCEIDSAIPEKRGMGSSAAISIAAIRAVFDYYQADLPHDVLEILVNRAEMIAHMNPSGLDAKTCLSDQPIRFIKNVGFTELEMDLSAYLVIADTGVYGHTREAIQVVQNKGKDALPFLHALGELTQQAEVAISQKYAEGLGLIFSQAHLHLKEIGVSSPEADFLVETALSYGALGAKMSGGGLGGCIIALVTNLTHAQELAERLEEKGAVQTWIESL	not soluble
MGHHHHHHSHDDDDLNTIEFKILAYYTRHHVFKSTPALFSPKLLRTRSLSQRGLGNCSANESWTEVSWPCRNSQSSEKAINLGKKKSSWKAFFGVVEKEDSQSTPAKVSAQGQRTLEYQDSHSQQWSRCLSNVEQCLEHEAVDPKVISIANRVAEIVYSWPPPQATQAGGFKSKEIFVTEGLSFQLQGHVPVASSSKKDEEEQILAKIVELLKYSGDQLERKLKKDKALMGHFQDGLSYSVFKTITDQVLMGVDPRGESEVKAQGFKAALVIDVTAKLTAIDNHPMNRVLGFGTKYLKENFSPWIQQHGGWEKILGISHEEVD	not soluble
